Each block holds one binder with its values, some of them ahead of it.
Assays:
Assay in all cases: activation reporter or marker
[1] = biological target: T1, KK-LC-1 peptide on HLA-B*15:01 (human)
T1 peptide: RQKRILVNL

[2] = biological target: T2, KK-LC-1 peptide on HLA-B*15:01 (human)
T2 peptide: RFQRNTGEM

[3] = biological target: T3, KK-LC-1 peptide on HLA-B*51:01 (human)
T3 peptide: RFQRNTGEM

[4] = biological target: T4, KK-LC-1 peptide on HLA-C*14:02 (human)
T4 peptide: RFQRNTGEM

[5] = biological target: T5, KK-LC-1 peptide on HLA-A*24:02 (human)
T5 peptide: RFQRNTGEM

[6] = biological target: T6, KK-LC-1 peptide on HLA-C*07:02 (human)
T6 peptide: RFQRNTGEM

[7] = biological target: T7, KK-LC-1 peptide on HLA-A*26:03 (human)
T7 peptide: RFQRNTGEM

- binding result [1]: recognises
B1: pt. 2-ex09TCR (TCR, V domains shown)
Valpha: GQNIDQPTEMTATEGAIVQINCTYQTSGFNGLFWYQQHAGEAPTFLSYNVLDGLEEKGRFSSFLSRSKGYSYLLLKELQMKDSASYLCAVDDGGATNKLIFGTGTLLAVQP
Vbeta: ETGVTQSPTHLIKTRGQQVTLRCSSQSGHNTVSWYQQALGQGPQFIFQYYREEENGRGNFPPRFSGLQFPNYSSELNVNALELDDSALYLCASSTRDRGTYEQYFGPGTRLTVT

- binding result [1]: recognises
B2: pt. 1-ex08TCR (TCR, V domains shown)
Valpha: KDQVFQPSTVASSEGAVVEIFCNHSVSNAYNFFWYLHFPGCAPRLLVKGSKPSQQGRYNMTYERFSSSLLILQVREADAAVYYCAVEDVPVNDYKLSFGAGTTVTVRA
Vbeta: DAGITQSPRHKVTETGTPVTLRCHQTENHRYMYWYRQDPGHGLRLIHYSYGVKDTDKGEVSDGYSVSRSKTEDFLLTLESATSSQTSVYFCAISAEGTYEQYFGPGTRLTVT

- binding result [1]: recognises
B3: pt. 1-ex15TCR (TCR, V domains shown)
Valpha: AQKVTQAQTEISVVEKEDVTLDCVYETRDTTYYLFWYKQPPSGELVFLIRRNSFDEQNEISGRYSWNFQKSTSSFNFTITASQVVDSAVYFCALSDPEESGYALNFGKGTSLLVTP
Vbeta: DTGVSQDPRHKITKRGQNVTFRCDPISEHNRLYWYRQTLGQGPEFLTYFQNEAQLEKSRLLSDRFSAERPKGSFSTLEIQRTEQGDSAMYLCASSSNEKLFFGSGTQLSVL

- binding result [2]: no recognition
- binding result [3]: no recognition
- binding result [4]: recognises
- binding result [5]: no recognition
- binding result [6]: no recognition
- binding result [7]: no recognition
B4: pt. 2-ex08TCR (TCR, V domains shown)
Valpha: GESVGLHLPTLSVQEGDNSIINCAYSNSASDYFIWYKQESGKGPQFIIDIRSNMDKRQGQRVTVLLNKTVKHLSLQIAATQPGDSAVYFCAEIPWGGSQGNLIFGKGTKLSVKP
Vbeta: DTGVSQDPRHKITKRGQNVTFRCDPISEHNRLYWYRQTLGQGPEFLTYFQNEAQLEKSRLLSDRFSAERPKGSFSTLEIQRTEQGDSAMYLCASSRDDREYFGEGSWLTVV

From EP4640225A1 (dated 2025)
